Assay results from IntAct's records for PubMed 30026228.

B1: Zinc fingers and homeoboxes protein 2 (Homo sapiens), Q9Y6X8 (parent)
chain: MASKRKSTTPCMVRTSQVVEQDVPEEVDRAKEKGIGTPQPDVAKDSWAAELENSSKENEVIEVKSMGESQSKKLQGGYECKYCPYSTQNLNEFTEHVDMQHPNVILNPLYVCAECNFTTKKYDSLSDHNSKFHPGEANFKLKLIKRNNQTVLEQSIETTNHVVSITTSGPGTGDSDSGISVSKTPIMKPGKPKADAKKVPKKPEEITPENHVEGTARLVTDTAEILSRLGGVELLQDTLGHVMPSVQLPPNINLVPKVPVPLNTTKYNSALDTNATMINSFNKFPYPTQAELSWLTAASKHPEEHIRIWFATQRLKHGISWSPEEVEEARKKMFNGTIQSVPPTITVLPAQLAPTKVTQPILQTALPCQILGQTSLVLTQVTSGSTTVSCSPITLAVAGVTNHGQKRPLVTPQAAPEPKRPHIAQVPEPPPKVANPPLTPASDRKKTKEQIAHLKASFLQSQFPDDAEVYRLIEVTGLARSEIKKWFSDHRYRCQRGIVHITSESLAKDQLAIAASRHGRTYHAYPDFAPQKFKEKTQGQVKILEDSFLKSSFPTQAELDRLRVETKLSRREIDSWFSERRKLRDSMEQAVLDSMGSGKKGQDVGAPNGALSRLDQLSGAQLTSSLPSPSPAIAKSQEQVHLLRSTFARTQWPTPQEYDQLAAKTGLVRTEIVRWFKENRCLLKTGTVKWMEQYQHQPMADDHGYDAVARKATKPMAESPKNGGDVVPQYYKDPKKLCEEDLEKLVTRVKVGSEPAKDCLPAKPSEATSDRSEGSSRDGQGSDENEESSVVDYVEVTVGEEDAISDRSDSWSQAAAEGVSELAESDSDCVPAEAGQA

Variants of: B1
Details: with vhl_human VHL
With P427A;P440A;P464A the “effect of a mutation on the interaction” value was “disrupting interaction strength”. For P464A, the “effect of a mutation on the interaction” value was “decreasing interaction strength”. In the case of P440A, the “effect of a mutation on the interaction” value is reported as “decreasing interaction strength”. With P427A the “effect of a mutation on the interaction” value was “decreasing interaction strength”.
